4 substances from IntAct's records for PubMed 22252131 can be followed below.

Experiment [1] concerns the target hakai_mouse Cbll1 (UniProt Q9JIY2).
For experiment [2] the target is unchanged. This is another data set of the same source.
For experiment [3] the target is unchanged. The source holds these as a separate data set.
The target is the same in experiment [4]. This is another data set of the same source.

hakai_mouse Cbll1, sequence (Q9JIY2 whole entry): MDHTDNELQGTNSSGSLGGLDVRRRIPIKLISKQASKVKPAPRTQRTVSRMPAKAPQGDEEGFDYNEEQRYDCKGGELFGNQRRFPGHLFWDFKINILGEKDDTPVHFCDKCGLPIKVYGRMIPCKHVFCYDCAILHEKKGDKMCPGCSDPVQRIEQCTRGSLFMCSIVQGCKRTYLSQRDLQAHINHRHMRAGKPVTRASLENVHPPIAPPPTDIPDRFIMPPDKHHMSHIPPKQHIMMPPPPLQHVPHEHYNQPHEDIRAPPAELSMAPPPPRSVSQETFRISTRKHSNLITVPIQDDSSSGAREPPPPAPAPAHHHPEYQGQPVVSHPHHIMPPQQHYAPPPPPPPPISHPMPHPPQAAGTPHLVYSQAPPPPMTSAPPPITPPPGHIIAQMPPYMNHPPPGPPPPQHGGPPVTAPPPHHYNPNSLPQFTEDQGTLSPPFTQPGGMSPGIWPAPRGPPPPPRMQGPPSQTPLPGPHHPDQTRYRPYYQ
Src substrate cortactin (Mus musculus), Q60598 E478A, sequence (Q60598 whole entry E478A): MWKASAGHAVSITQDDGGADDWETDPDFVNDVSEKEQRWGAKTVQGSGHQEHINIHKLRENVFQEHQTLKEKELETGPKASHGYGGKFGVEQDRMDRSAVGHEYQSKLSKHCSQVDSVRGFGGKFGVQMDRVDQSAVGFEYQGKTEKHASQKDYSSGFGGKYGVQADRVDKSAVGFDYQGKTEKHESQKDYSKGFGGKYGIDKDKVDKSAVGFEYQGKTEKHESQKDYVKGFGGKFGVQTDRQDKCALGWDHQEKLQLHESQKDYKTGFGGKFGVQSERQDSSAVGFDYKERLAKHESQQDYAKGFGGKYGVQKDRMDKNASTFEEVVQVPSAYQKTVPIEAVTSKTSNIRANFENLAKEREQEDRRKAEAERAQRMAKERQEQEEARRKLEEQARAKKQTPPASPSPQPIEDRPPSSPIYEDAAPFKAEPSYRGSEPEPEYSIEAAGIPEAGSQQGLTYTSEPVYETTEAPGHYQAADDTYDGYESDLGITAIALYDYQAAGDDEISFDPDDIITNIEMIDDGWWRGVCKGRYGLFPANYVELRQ
Src substrate cortactin (Mus musculus), Q60598 D480A, sequence (Q60598 whole entry D480A): as the sequence (Q60598 whole entry E478A) above, with A478E, D480A counted along it
Src substrate cortactin (Mus musculus), Q60598 Y482F, sequence (Q60598 whole entry Y482F): as the sequence (Q60598 whole entry E478A) above, with A478E, Y482F counted along it

On to “Src substrate cortactin (Mus musculus), Q60598 D480A”, for which the “effect of a mutation on the interaction” value in experiment [1] was “decreasing interaction”.
With “Src substrate cortactin (Mus musculus), Q60598 E478A”, the “effect of a mutation on the interaction” value in experiment [2] was “decreasing interaction”.
In the case of “Src substrate cortactin (Mus musculus), Q60598 E486A”, the “effect of a mutation on the interaction” value in experiment [3] is “disrupting interaction”.
Take “Src substrate cortactin (Mus musculus), Q60598 Y482F”: in experiment [4], the “effect of a mutation on the interaction” value is on record as “disrupting interaction”.
